From US20180280504A1, “GLYCAN-INTERACTING COMPOUNDS AND METHODS OF USE” (SIAMAB THERAPEUTICS, INC., priority 2014, published 2018)

How the values were obtained:
[1] = system: STn on bovine submaxillary mucin (BSM); test: Anti-STn BSM ELISA, non-treated and periodate-treated wells; type: binding; details: for hybridoma screening: specificity for STn: BSM ELISA without and after periodate treatment
Protocol: Anti-STn serum titer is determined using a murine anti-STn bovine submaxillary mucin (BSM) ELISA together with serum profiles observed by glycan microarray. 96-well plates are coated with 1 μg/well of BSM and incubated overnight at 4° C. O-acetylation of BSM antigen is removed by treating wells with 0.1 M sodium hydroxide. Specific binding to STn is determined by treatment of wells with sodium periodate. Periodate treatment destroys the […] side chain of sialic acid; therefore antibodies raised against STn should not bind to periodate-treated wells. Wells are blocked with PBS 1% ovalbumin (OVA). Serum samples to be assayed are serially diluted in PBS 1% OVA. A commercially available mouse anti-STn monoclonal antibody, 3F1 (SBH Sciences, Natick, Mass.) is used as a positive control. This antibody is also serially diluted in PBS with 1% OVA. A pool of serum from naïve wild type mice is used for the preparation of negative control samples. Detection of anti-STn antibodies present in serum is determined using an HRP-conjugated polyclonal goat anti-mouse IgG antibody (Jackson Immunoresearch, West Grove, Pa.). The reaction is stopped by addition of sulfuric acid (1.6 M). Optical densities are measured at 490 nm using a Spectramax microplate reader (Molecular Devices, Sunnyvale, Calif.). The serum titer is obtained by comparison of OD values with a cutoff value calculated as two standard deviations above the mean of optical density values of the negative control. Sample tests are considered positive if the mean optical density value is greater than the cutoff value.
Binding affinities of 18D2 and 18C7 to STn were compared to commercially available anti-STn antibodies using the BSM ELISA assay described in Example 2. Commercial anti-STn antibodies used for comparison included 3F1 (SBH Sciences, Natick, Mass.,) TAG-72 clone B72.3 (Thermo Fisher Scientific, Waltham, Mass.,) TAG-72 clone CC49 (Santa Cruz Biotechnology, Santa Cruz, Calif.) as well as a negative control antibody against c-myc (Thermo Fisher Scientific, Waltham, Mass.). Each antibody was titrated using a 7-point, 1:5 serial dilution starting from 100 nM. Titrated antibodies were added to BSM ELISA plates containing wells that were non-treated or treated with sodium periodate. Antibody binding was determined using HRP-conjugated polyclonal goat anti-mouse IgG antibody (Jackson Immunoresearch Laboratories, West Grove, Pa.). The reaction was developed using an HRP substrate and stopped with 1.6 M sulfuric acid. Optical densities were measured at 490 nm using a Spectramax microplate reader. […] The half maximal effective concentration (EC50) for each antibody was calculated using a non-linear regression analysis carried out on periodate subtracted data.

OV-90 cells = test: Cell viability assay with secondary antibody-drug conjugate (2° ADC), OV-90; type: cell-based; details: with 2° ADC Fab αMFc-CL-MMAF
Protocol: Cell viability assays are performed to screen anti-STn antibodies of the present invention in the presence and absence of secondary antibody-drug conjugates (2° ADCs). The purpose of the screen is to identify the ability of each anti-STn antibody to inhibit cell growth. Antibodies with potent cell growth inhibition are used to design direct antibody-drug conjugates (ADCs). Using such secondary antibody-drug conjugates (2° ADCs) in cell-based cytotoxic assays can quickly pre-screen many ADC candidates against tumor cells. Based on the assay, a naked antibody candidate is directly added to cells in the presence of a 2° ADC. Internalization of the mAb/2° ADC complex into cells that express a high density of the targeted antigen can achieve a dose-dependent drug release within the cells, causing a cytotoxic effect to kill the cells (e.g., tumor cells), while cells expressing a low density of the targeted antigen are not affected (e.g., normal cells).
To perform cell viability assays, cell lines described in the present application (MDA-MB-231 parental, MDA-MB-231-STn+, and OV-90) are prepared and cultured for the assays. The cell culture is optimized for cell density by plating different densities of cells (e.g., 2,000, 4,000 and 7,500 per well) on a 96-well plate and observing the cell growth for 96 hours. The plating condition in which cells reach around 90% confluence at the end of the 96 hours is identified and the optimal cell number is then used in the final viability assay.
Duplicate or triplicate cell plates for each cell line are used for testing each antibody candidate.
For cell viability assays, data points are collected for each antibody candidate with duplicates for each data point. […]
Cell viabilities are measured by Cell-Titer Glo luminescence based assays.
Three anti-STn monoclonal antibodies (anti-STn antibodies S3F, 7G9 and 2D4) and an anti-EGFR monoclonal antibody LA22 were tested for internalization. […] Cell viability was then measured using CellTitreGlo Luminescent Cell Viability Assay (Promega, Madison, Wis.).

binding to non-treated wells ([1]; BSM ELISA, wells not treated with sodium periodate)	binding to periodate-treated wells ([1]; BSM ELISA, wells treated with sodium periodate)	EC50 ([1]; non-linear regression on periodate subtracted data, 7-point 1:5 dilution from 100 nM) [nM]	Molecule	hybridoma screening: specificity for STn [1]	activity in OV-90 cells (OV-90 cells)
			10A5: anti-STn mouse monoclonal, IgG2c κ, from mouse #4406; VH SEQ ID NO: 6, VL SEQ ID NO: 7 (antibody, V domains shown) VH: QVQLKESGPGLVAPSQSLSITCTVSGFSLTSYGVSWVRQPPGKGLEWLGVIWGDGSTNYHSSLISRLSISKDNSKSQVFLKLNSLQTDDTATYYCARAFVYWGQGTLVTVSA VL: QIVLTQSPAIMSASPGEKVTMTCSASSSVSYIHWYQQKSGTSPKRWIYDTSKLASGVPARFSGSGSGTSYSLTISSMEAEDAATYYCQQWSSNPPMLTFGAGTKLELK	specific for STn	
			2D4: anti-STn mouse monoclonal, IgG2b κ, from mouse #4407; VH SEQ ID NO: 10, VL SEQ ID NO: 11 (antibody, V domains shown) VH: QVQLQESGPGLVAPSQSLSITCTVSGFSLISYGVNWVRQPPGKGLEWLGVIWGDGSTNYQSALISRLIISKDNSKSQVFLKLNSLQTDDTATYYCTKGFAYWGQGTLVTVSA VL: QIVLTQSPAIMSASPGEKVTMTCSASSSVSYMHWFQQKSGTSPKRWIYDTSKLASGVPARFSGSGSGTSYSLTISSMEAEDAATYYCQQWSSNLLTFGAGTKLELK	specific for STn	lack of effect
			7G9: anti-STn mouse monoclonal, IgG2b κ, from mouse #4407; VH SEQ ID NO: 12, VL SEQ ID NO: 9 (antibody, V domains shown) VH: QVQLKESGPGLVAPSQNLSITCTVSGFSLTSYGVNWVRQPPGKGLEWLGVIWGDGSTNYHSALISRLIISKENSKSQVFLKLNSLQTNDTATYYCTKGFVYWGQGTLVTVSA VL: QIVLTQSPAIMSASPGEKVTMTCSASSSVSYMHWYQQKSGTSPKRWIFDTSKLASGVPARFSGSGSGTSYSLTISSMEAEDAATYYCQQWSSNLLTFGAGTKLELK	specific for STn	lack of effect
			8C11: anti-STn mouse monoclonal, IgG2b κ, from mouse #4407; VH SEQ ID NO: 8, VL SEQ ID NO: 9 (antibody, V domains shown) VH: QVQLKESGPGLVAPSQSLSITCTVSGFSLTSYGVSWVRQPPGKGLEWLGVIWGDGSTNYHSALISRLIISKDNSKSQVFLKLNSLQTDDTATYYCTKGFTYWGQGTLVTVSA VL: QIVLTQSPAIMSASPGEKVTMTCSASSSVSYMHWYQQKSGTSPKRWIFDTSKLASGVPARFSGSGSGTSYSLTISSMEAEDAATYYCQQWSSNLLTFGAGTKLELK	specific for STn	
bound non-treated wells	did not bind to periodate-treated wells	62.5	18C7: anti-STn mouse monoclonal, IgG2c κ, from mouse #4436; VH SEQ ID NO: 4, VL SEQ ID NO: 5 (antibody, V domains shown) VH: QVTLKESGPGILQPSQTLSLTCSFSGFSLSTFGMGVGWIRQPSGKGLEWLAHIWWDDDKYYNPALKSRLTISKDTSKNQVFLKIANVDTADTATYYCARIAYYYGSERDYWGQGTTLTVSS VL: QIVLTQSPAIMSASPGEKVTMTCSASSSISYMHWYHQKPGTSPKRWIYDTSKLASGVPARFSGSGSGTSYSLTISSMEAEDAATYYCHQRSSYTFGGGTKLEIKR	specific for STn	
			S3F: 3F1 variable domains combined with IgG2a constant domains; heavy chain SEQ ID NO: 63, light chain SEQ ID NO: 64 (antibody) heavy: QVQLQQSDAELVKPGASVKISCKASGYTFTDHAIHWVKQKPEQGLDWIGYISPGNGDIKYNEKFKDKVTLTADKSSSTACMHLNSLTSEDSAVYFCKRSLLALDYWGQGTTLTVSSAKTTAPSVYPLAPVCGDTTGSSVTLGCLVKGYFPEPVTLTWNSGSLSSGVHTFPAVLQSDLYTLSSSVTVTSSTWPSQSITCNVAHPASSTKVDKKIEPRGPTIKPCPPCKCPAPNLLGGPSVFIFPPKIKDVLMISLSPIVTCVVVDVSEDDPDVQISWFVNNVEVHTAQTQTHREDYNSTLRVVSALPIQHQDWMSGKEFKCKVNNKDLPAPIERTISKPKGSVRAPQVYVLPPPEEEMTKKQVTLTCMVTDFMPEDIYVEWTNNGKTELNYKNTEPVLDSDGSYFMYSKLRVEKKNWVERNSYSCSVVHEGLHNHHTTKSFSRTPGK light: DIVMTQSHKFMSTSVGDRVSITCKASQDVGTNIAWYQQKPGRSPKVLIYSASTRHTGVPDRFTGSGSGTDFTLTISNVQSEDLTDYFCQQYSSFPLTFGVGTKLELKRADAAPTVSIFPPSSEQLTSGGASVVCFLNNFYPKDINVKWKIDGSERQNGVLNSWTDQDSKDSTYSMSSTLTLTKDEYERHNSYTCEATHKTSTSPIVKSFNRNEC		modest activity
